# Assay results taken from IntAct's records for PubMed 20543138.
# B1: General transcription factor 3C polypeptide 5 (Homo sapiens), Q9Y5Q8 (parent)
# chain: MAAEAADLGLGAAVPVELRRERRMVCVEYPGVVRDVAKMLPTLGGEEGVSRIYADPTKRLELYFRPKDPYCHPVCANRFSTSSLLLRIRKRTRRQKGVLGTEAHSEVTFDMEILGIISTIYKFQGMSDFQYLAVHTEAGGKHTSMYDKVLMLRPEKEAFFHQELPLYIPPPIFSRLDAPVDYFYRPETQHREGYNNPPISGENLIGLSRARRPHNAIFVNFEDEEVPKQPLEAAAQTWRRVCTNPVDRKVEEELRKLFDIRPIWSRNAVKANISVHPDKLKVLLPFIAYYMITGPWRSLWIRFGYDPRKNPDAKIYQVLDFRIRCGMKHGYAPSDLPVKAKRSTYNYSLPITVKKTSSQLVTMHDLKQGLGPSGTSGARKPASSKYKLKDSVYIFREGALPPYRQMFYQLCDLNVEELQKIIHRNDGAENSCTERDGWCLPKTSDELRDTMSLMIRQTIRSKRPALFSSSAKADGGKEQLTYESGEDEEDEEEEEEEEEDFKPSDGSENEMETEILDYV
# Variants of: B1
# Conditions: with mtor_human MTOR
row,effect of a mutation on the interaction,Variant
1,disrupting interaction,F109I
